Drawing on patent US20100080806A1 (INSTITUTE OF BASIC MEDICAL SCIENCES OF CHINESE ACADEMY OF …, published 2010), this text covers binding result and Kd for one molecule.

One may read the Kd as the concentration at which binding is half-saturated.

Assay [1] concerns the target T1, recombinant human DR4 extracellular domain protein expressed in E. coli (human, UniProt O00220 24-239).
T1 construct: extracellular domain; also called death receptor 4; TRAIL-R1
In words: ELISA, plate coated with recombinant DR4 extracellular domain. How it is done: (§1) ELISA plates (Costar, USA) were coated with recombinant human DR4 or DR5 extracellular domain protein expressed in E. coli over night, blocked with 5% nonfat milk at room temperature for two hours. […] The absorbency at 492 nm was measured on a microtiter reader of enzyme-labelled machine, Wellscan MK3 (Thermo Labsystems, Finland).
(In an ELISA, binding on a coated surface is turned into a signal by an enzyme label.)

The target of assay [2] is T2, recombinant human DR5 extracellular domain protein expressed in E. coli (human, UniProt O14763 56-210).
T2 construct: extracellular domain; also called death receptor 5; TRAIL-R2
In words: ELISA on plate-coated recombinant DR5 extracellular domain, single-site fit (GraphPad). The method, then:
as §1

T1 sequence (O00220 24-239): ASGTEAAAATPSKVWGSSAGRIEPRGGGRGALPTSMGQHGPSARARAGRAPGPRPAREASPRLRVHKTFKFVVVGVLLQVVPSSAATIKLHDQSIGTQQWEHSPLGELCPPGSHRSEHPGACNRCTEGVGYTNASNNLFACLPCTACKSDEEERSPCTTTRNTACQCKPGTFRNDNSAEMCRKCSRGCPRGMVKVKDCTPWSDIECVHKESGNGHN

B1: monoclonal antibody AD5-10 against human TRAIL receptor DR5 (antibody, IgG3, V domains shown)
VH: QIQLVQSGPELKKPGETVKISCKASGYTFTDFSMNWVKQAPGKGLKWMGWINTETGEPTYADDFKGRFALSMETSASTAYLQINNLKNEDTATYFCVRIDYWGQGTTLTVSS
VL: DVVMTQTPLSLPVSLGDQASISCRSSQSLVHSNGNTYLHWYLQKPGQSPKLLIYKVSNRFSGVPDRFSGSGSGTDFTLKISRVEAEDLGVYFCFQSTHVPHTFGGGTKLEIKR
notes: Murine hybridoma antibody (CGMCC 1192), subtype IgG3 kappa; also called anti-human TRAIL receptor DR5 mAb; mAb DR5
Take B1: the binding result in assay [1] is “no binding”. The Kd in assay [2] came to 0.3 nM.
